The target of data set [1] is T1, ParB_pSM19035 (ParBpSM, Omega) (plasmid pSM19035, UniProt Q57468 1-71).
T1 sequence: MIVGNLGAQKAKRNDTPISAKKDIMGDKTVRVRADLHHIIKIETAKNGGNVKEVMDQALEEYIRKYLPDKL
Briefly: EMSA; 2 mM Mg2+; EMSA: 50 mM Tris-HCl pH 7.4, 100 mM KCl, 2 mM MgCl2, 1 mM DTT, room temperature 15 min, 0.05 nM 32P-DNA, 4-12% PAGE. TIRF binding to the salmon sperm DNA carpet (undefined sequence pool) and ATPase assays not listed. Conditions: protein: recombinant; tags: none stated; chain copies: 2; label: 32P; blunt. In general terms: In EMSA bound probe runs differently from free probe, usually more slowly.

The target of data set [2] is ParApSM-His6 (non-fluorescent, wild-type) (Streptococcus pyogenes (plasmid pSM19035)) (UniProt Q57280).
The target is the same in data set [3]. The source holds these as a separate data set.
Data set [4] has the same target. The source holds these as a separate data set.
Data set [5] shares this target. This is another data set of the same source.
Data set [6] addresses ParApSM^D60E-GFP-His6 (Streptococcus pyogenes (plasmid pSM19035)) (UniProt Q57280). Briefly: TIRF microscopy on an nsDNA-carpeted flow cell; ParApSM^D60E-GFP (1 μM) bound first to the nsDNA-carpet, then washed with 250 nM ParBpSM-Alexa647 plus 3R-parSpSM duplex (125 nM heptad); room temperature; 1 mM ATP.
For data set [7] the target is unchanged. Nature of the data set: TIRF microscopy on an nsDNA-carpeted flow cell; ParApSM^D60E-GFP (1 μM) bound first to the nsDNA-carpet, then washed with 250 nM ParBpSM-Alexa647 plus 4R-parSpSM duplex (125 nM heptad); room temperature; 1 mM ATP.
Data set [8] shares this target. Nature of the data set: TIRF microscopy on an nsDNA-carpeted flow cell; ParApSM^D60E-GFP (1 μM) bound first to the nsDNA-carpet, then washed with 250 nM ParBpSM-Alexa647 plus 36 nM 7R-parSpSM duplex; room temperature; 1 mM ATP; apparent constants.
Data set [9] concerns the target ParApSM-GFP-His6 (Streptococcus pyogenes (plasmid pSM19035)) (UniProt Q57280). Briefly: TIRF microscopy on an nsDNA-carpeted flow cell; ParApSM-GFP bound first to the nsDNA-carpet to ~10% of saturation, then washed with 1 μM ParBpSM-Alexa647 plus 7R-parSpSM duplex; room temperature; 1 mM ATP; apparent constants.
The target is the same in data set [10]. Nature of the data set: TIRF microscopy on an nsDNA-carpeted flow cell; ParApSM-GFP bound first to the nsDNA-carpet to ~10% of saturation, then washed with 1 μM ParBpSM-Alexa647 plus 125 nM 4R-parSpSM duplex; room temperature; 1 mM ATP; apparent constants.
For data set [11] the target is unchanged. Briefly: TIRF microscopy on an nsDNA-carpeted flow cell; ParApSM-GFP bound first to the nsDNA-carpet to ~10% of saturation, then washed with 1 μM ParBpSM-Alexa647 plus 166 nM 3R-parSpSM duplex; room temperature; 1 mM ATP; apparent constants.
Data set [12] has the same target. Briefly: TIRF microscopy on an nsDNA-carpeted flow cell; ParApSM-GFP (1 μM) and ParBpSM-Alexa647 (1 μM) preincubated with 1 mM ATP without parSpSM, infused over the nsDNA-carpet for 15 min, then washed with ATP buffer without proteins; room temperature; apparent constants.
Data set [13] has the same target. Nature of the data set: TIRF microscopy on an nsDNA-carpeted flow cell; ParApSM-GFP (1 μM) and ParBpSM-Alexa647 (1 μM) preincubated with 1 mM ATP and 3R-parSpSM (0.5 μM consensus repeats), infused over the nsDNA-carpet for 15 min, then washed with ATP buffer without proteins; room temperature; apparent constants.
Data set [14] has the same target. Nature of the data set: TIRF microscopy on an nsDNA-carpeted flow cell; ParApSM-GFP (1 μM) and ParBpSM-Alexa647 (1 μM) preincubated with 1 mM ATP and 7R-parSpSM (0.5 μM consensus repeats), infused over the nsDNA-carpet for 15 min, then washed with ATP buffer without proteins; room temperature; apparent constants.
For data set [15] the target is unchanged. Briefly: TIRF microscopy on an nsDNA-carpeted flow cell; ParApSM-GFP (1 μM) and ParBpSM-Alexa647 (1 μM) preincubated with 1 mM ATP and 4R-parSpSM (0.5 μM consensus repeats), infused over the nsDNA-carpet for 15 min, then washed with ATP buffer without proteins; room temperature; apparent constants.
The target is the same in data set [16]. Nature of the data set: TIRF microscopy on an nsDNA-carpeted flow cell; ParApSM-GFP (1 μM, 1 mM ATP) bound first to the nsDNA-carpet to ~10% of saturation, then washed with 1 μM ParBpSM-Alexa647 without parSpSM; room temperature; 50 mM Tris-HCl pH 7.4, 100 mM KCl, 2 mM MgCl2, 10% glycerol, 1 mM ATP; apparent constants.

One may read the Kd as the constant that tells how readily two partners part at equilibrium.

B1: scrambled 55 bp (nsDNA) (dsDNA)
DNA 1: GGGATCAAACACTTGATAGACAAGTCTTTGACCTAATTGTGAAAATTATGAAGGG
DNA 2: CCCTTCATAATTTTCACAATTAGGTCAAAGACTTGTCTATCAAGTGTTTGATCCC
For the molecule B1, the Kd in data set [1] is ~1000 nM.

B2: ParBpSM wild-type (natural protein)
chain: T1 sequence
For the molecule B2, in data set [2], the steady-state ParApSM ATPase turnover with 8 μM ParBpSM, scrambled-sequence duplex and nsDNA (pBR322), 37°C came out at 2.4 h^–1; the steady-state ParApSM ATPase turnover with ParBpSM, 7R-parSpSM duplex and nsDNA (pBR322), 37°C worked out at 20.5 h^–1. The same molecule registered a ParBpSM concentration at which the ParApSM ATPase stimulation saturates, with parSpSM DNA of 1-3 repeats and nsDNA in data set [3] of 2 µM. Further, the steady-state ParApSM ATPase turnover with ParBpSM, 3R-1nc-3R-parSpSM duplex and nsDNA, 37°C in data set [4] turned out to be 8.3 h^–1. The ParBpSM concentration for half-activation of the ParApSM ATPase at high 7R-parSpSM concentration, with nsDNA in data set [5] was 650 nM.

B3: ParBpSM-Alexa647 (ParBpSM-GCE, 1% labeled) (natural protein)
chain: T1 sequence
modifications: Alexa647 maleimide on the added cysteine (73C); 1% of the protein labelled
Take B3: the ParBpSM/ParApSM ratio on the nsDNA-carpet at the initial ParBpSM overshoot peak (ParBpSM/ParApSM) in [6] came to 0.6. Further, in [7], the ParBpSM/ParApSM ratio on the nsDNA-carpet at the initial ParBpSM overshoot peak (ParBpSM/ParApSM) was 1.3. Also, in data set [8], the ParBpSM/ParApSM ratio on the nsDNA-carpet at the initial ParBpSM overshoot peak (ParBpSM/ParApSM) worked out at 1.75; the apparent koff of ParBpSM from the ParApSM^D60E-bound nsDNA-carpet after its peak (ParBpSM and 7R-parSpSM in the wash) was found to be 0.036 min^–1. Moreover, in data set [9], the ParBpSM density on the nsDNA-carpet relative to carpet-bound ParApSM stood at 2 fold; the ParBpSM/ParApSM molar ratio on the nsDNA-carpet at the start of the dissociation burst (ParBpSM/ParApSM) was 2.8; the apparent koff of ParBpSM from the ParApSM-bound nsDNA-carpet after its peak (ParBpSM and 7R-parSpSM in the wash) is 2.4 min^–1. In addition, in data set [10], the ParBpSM/ParApSM molar ratio on the nsDNA-carpet at the start of the dissociation burst (ParBpSM/ParApSM) was found to be 1.7; the apparent koff of ParBpSM from the ParApSM-bound nsDNA-carpet after its peak (ParBpSM and 4R-parSpSM in the wash) was determined as 3.9 min^–1. In addition, in data set [11], the ParBpSM/ParApSM ratio on the nsDNA-carpet (ParBpSM/ParApSM) came to 1.3; the apparent koff-fast (~24%) of ParBpSM from the ParApSM-bound nsDNA-carpet (ParBpSM and 3R-parSpSM in the wash) worked out at 1.4 min^–1; the apparent koff-slow of ParBpSM from the ParApSM-bound nsDNA-carpet (ParBpSM and 3R-parSpSM in the wash) worked out at 0.05 min^–1. In addition, in data set [12], the ParBpSM density on the nsDNA-carpet relative to ParApSM after 15 min of infusion (ParBpSM/ParApSM) was 0.67 and the koff of the fast-dissociating majority (~75%) of ParBpSM stood at 7 min^–1. For the same molecule, in data set [13], the ParBpSM density on the nsDNA-carpet relative to ParApSM after 15 min of infusion (ParBpSM/ParApSM) is 0.67 and the koff of the fast-dissociating majority (~75%) of ParBpSM amounted to 4 min^–1. Besides, in [14], the ParBpSM/ParApSM ratio accumulated on the nsDNA-carpet (ParBpSM/ParApSM) stood at 1.2, the koff-fast-B (~70%) was determined as 1.1 min^–1 and the koff-slow-B was 0.13 min^–1. In [15], the ParBpSM/ParApSM ratio on the nsDNA-carpet at the end of 15 min of infusion (ParBpSM/ParApSM) was 0.75, the ParBpSM/ParApSM ratio on the nsDNA-carpet within 1 min of washing (ParBpSM/ParApSM) worked out at 0.5, the koff-fast-B (66%) was determined as 1.9 min^–1 and the koff-slow-B came to 0.23 min^–1. In data set [16], the ParBpSM/ParApSM ratio on the nsDNA-carpet after several min of washing (ParBpSM/ParApSM) worked out at 1, the peak density on the ParApSM-bound nsDNA-carpet was 3000 dimers/μm^2 and the plateau density on the ParApSM-bound nsDNA-carpet was 2000 dimers/μm^2.
